The record followed here is publication PMC4995138.

The test has as its target Human pyruvate kinase isoform M2 (PKM2), wild type (human) (UniProt P14618). Kind of test: SEC. Background: In gel filtration, larger molecules generally elute earlier.

Chain of Human pyruvate kinase isoform M2 (PKM2), wild type, P14618 1-531 (enzyme; other documents disagree on this pair) (P14618 whole entry, canonical isoform): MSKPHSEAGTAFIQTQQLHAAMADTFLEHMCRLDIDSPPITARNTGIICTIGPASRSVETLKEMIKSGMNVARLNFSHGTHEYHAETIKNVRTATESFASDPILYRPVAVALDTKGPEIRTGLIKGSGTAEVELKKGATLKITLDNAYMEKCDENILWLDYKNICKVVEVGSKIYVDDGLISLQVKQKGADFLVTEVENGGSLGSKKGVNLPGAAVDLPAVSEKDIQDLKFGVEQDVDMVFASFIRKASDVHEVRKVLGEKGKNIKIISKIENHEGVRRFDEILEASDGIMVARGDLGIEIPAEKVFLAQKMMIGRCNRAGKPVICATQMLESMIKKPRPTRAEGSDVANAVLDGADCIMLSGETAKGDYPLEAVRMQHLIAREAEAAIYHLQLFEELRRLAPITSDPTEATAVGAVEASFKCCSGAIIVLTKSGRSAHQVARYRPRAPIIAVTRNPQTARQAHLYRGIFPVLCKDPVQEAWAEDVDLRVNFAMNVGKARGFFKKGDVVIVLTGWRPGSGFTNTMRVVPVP

Consider “Human pyruvate kinase isoform M2 (PKM2), wild type, P14618 1-531 (enzyme; other documents disagree on this pair)”, for which the stoichiometry N (commonly the number of molecules, sites or subunits per partner or assembly) is 2.
